Test results published in article PMC6066478, “Structural visualization of RNA polymerase III transcription machineries” (Cell Discovery, 2018).

Key:
Bdp1 (B double prime) = target: T1, Bdp1 (B double prime) (Saccharomyces cerevisiae, UniProt P46678 1-594); test: cryo-EM structure; Pol III OC, 4.1 Å (TFIIIB 4.7 Å with soft mask): same assembly on the OC scaffold with a 10-nt mismatched bubble; details: both partners purified
T1 construct: Bdp1, S. cerevisiae, PCR amplified from genomic DNA; Cloned in pET21b(+) at SalI and NotI; The methods cite the purification of B''(138-594) only as the procedure followed; also called subunit of TFIIIB
T1 sequence: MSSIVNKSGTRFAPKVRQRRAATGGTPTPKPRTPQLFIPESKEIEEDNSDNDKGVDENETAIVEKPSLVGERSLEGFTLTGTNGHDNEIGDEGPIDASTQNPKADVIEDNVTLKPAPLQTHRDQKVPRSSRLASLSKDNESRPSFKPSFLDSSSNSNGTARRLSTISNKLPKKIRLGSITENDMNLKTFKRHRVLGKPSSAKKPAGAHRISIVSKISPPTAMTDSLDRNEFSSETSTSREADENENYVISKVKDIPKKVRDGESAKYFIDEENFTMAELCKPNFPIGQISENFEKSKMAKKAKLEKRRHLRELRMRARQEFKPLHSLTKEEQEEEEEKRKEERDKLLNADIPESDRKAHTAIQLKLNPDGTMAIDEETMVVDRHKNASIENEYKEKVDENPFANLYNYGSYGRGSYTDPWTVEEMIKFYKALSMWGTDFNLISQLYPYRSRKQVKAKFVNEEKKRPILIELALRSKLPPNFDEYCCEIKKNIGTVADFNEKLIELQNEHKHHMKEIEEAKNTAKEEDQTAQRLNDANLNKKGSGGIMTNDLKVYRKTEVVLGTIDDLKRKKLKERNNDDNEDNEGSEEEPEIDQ

Bdp1 Δ355–372 = target: T2, Bdp1 Δ355–372 (Saccharomyces cerevisiae, UniProt P46678 1-594, Δ355–372); test: cryo-EM structure; Pol III iOC (intermediate OC), about 8.5 Å (TFIIIB lobe 15-25 Å): assembly with Bdp1 Δ355–372 on the closed DNA scaffold, assembly buffer plus 60 mM KCl; map only, no model deposited; details: both partners purified
T2 construct: Same construct as m3 apart from the deletion; source: E. coli BL21 (DE3) pRARE, purified as the wild-type protein
T2 sequence (looked up): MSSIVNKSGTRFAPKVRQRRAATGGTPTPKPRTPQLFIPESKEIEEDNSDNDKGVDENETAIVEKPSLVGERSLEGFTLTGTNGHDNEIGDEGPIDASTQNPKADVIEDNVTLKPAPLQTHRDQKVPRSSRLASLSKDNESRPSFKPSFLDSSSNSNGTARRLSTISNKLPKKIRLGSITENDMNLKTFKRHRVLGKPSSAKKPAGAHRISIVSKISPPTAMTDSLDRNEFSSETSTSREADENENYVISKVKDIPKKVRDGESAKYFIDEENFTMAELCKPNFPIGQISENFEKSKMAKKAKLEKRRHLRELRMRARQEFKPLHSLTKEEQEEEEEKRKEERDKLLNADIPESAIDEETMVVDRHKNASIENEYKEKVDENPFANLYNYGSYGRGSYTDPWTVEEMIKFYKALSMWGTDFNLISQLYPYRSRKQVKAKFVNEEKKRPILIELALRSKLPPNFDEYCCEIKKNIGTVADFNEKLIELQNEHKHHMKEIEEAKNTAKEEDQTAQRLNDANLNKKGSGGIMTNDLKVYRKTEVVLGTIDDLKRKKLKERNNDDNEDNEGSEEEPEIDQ

[1] = target: T3, RNA polymerase III (17 subunits, incl. C160, C82/C34/C31, C53);Brf1N-TBPc-Brf1C chimera;Bdp1 (Saccharomyces cerevisiae;Saccharomyces …, UniProt P04051;P22276;P32349;P25441;P07703;P36121;P32910;P17890;P35718;P20434;P20435;P28 …, |internal_change|); test: cryo-EM; ITC; 4.1 Å; EMD-7530; PIC assembled at room temperature; assembly buffer not given in the material; details: protein: native;recombinant;recombinant; tags: TAP tag on C53 C terminus (TEV-cleaved, calmodulin eluted);C-terminal 6xHis;C-terminal 6xHis; copies: 1;1;1;1;1;1;1;1;1;1;1;1;1;1;1;1;1;1;1; label: biotin 5' on strand 3; mismatched bubble with RNA (strand 4, RNA written as printed); strands 2 and 3 both anneal to strand 1 (nick between them)
[2] = target: T3, RNA polymerase III (17 subunits, incl. …); test: cryo-EM; OC; 4.1 Å; EMD-7531; PIC assembled at room temperature; assembly buffer not given in the material; details: protein: native;recombinant;recombinant; tags: TAP tag on C53 C terminus (TEV-cleaved, calmodulin eluted);C-terminal 6xHis;C-terminal 6xHis; copies: 1;1;1;1;1;1;1;1;1;1;1;1;1;1;1;1;1;1;1; label: biotin 5' on strand 3; 10-nt mismatched bubble; strands 2 and 3 both anneal to strand 1 (nick between them)
[3] = target: T3, RNA polymerase III (17 subunits, incl. …); test: cryo-EM; nOC, spontaneously melted; 4.8 Å; EMD-7532; PIC assembled at room temperature; assembly buffer not given in the material; details: protein: native;recombinant;recombinant; tags: TAP tag on C53 C terminus (TEV-cleaved, calmodulin eluted);C-terminal 6xHis;C-terminal 6xHis; copies: 1;1;1;1;1;1;1;1;1;1;1;1;1;1;1;1;1;1;1; label: biotin 5' on strand 3; strand 1 fully paired; strands 2 and 3 both anneal to strand 1 (nick between them)
[4] = target: RNA polymerase III (17 subunits, incl. C160, C82/C34/C31, C53);Brf1N-TBPc-Brf1C chimera;Bdp1 Δ355-372 (Saccharomyces cerevisiae;Saccharomyces …, UniProt P04051;P22276;P32349;P25441;P07703;P36121;P32910;P17890;P35718;P20434;P20435;P28 …, |internal_change|del355-372); test: cryo-EM; iOC, Brf1 ZR and C34 WH1 disordered; 8.5 Å; EMD-7534; PIC assembled at room temperature; assembly buffer not given in the material; details: protein: native;recombinant;recombinant; tags: TAP tag on C53 C terminus (TEV-cleaved, calmodulin eluted);C-terminal 6xHis;C-terminal 6xHis; copies: 1;1;1;1;1;1;1;1;1;1;1;1;1;1;1;1;1;1;1; label: biotin 5' on strand 3; strand 1 fully paired; strands 2 and 3 both anneal to strand 1 (nick between them)
[5] = target: T3, RNA polymerase III (17 subunits, incl. …); test: cryo-EM; complex on EC scaffold, RNA not seen; 4.5 Å; EMD-7533; PIC assembled at room temperature; assembly buffer not given in the material; details: protein: native;recombinant;recombinant; tags: TAP tag on C53 C terminus (TEV-cleaved, calmodulin eluted);C-terminal 6xHis;C-terminal 6xHis; copies: 1;1;1;1;1;1;1;1;1;1;1;1;1;1;1;1;1;1;1; label: biotin 5' on strand 3; mismatched bubble +12 to +22 with RNA (strand 4); strands 2 and 3 both anneal to strand 1 (2-nt gap between them)

B1: chimera protein Brf1N-TBPc-Brf1C (other, Saccharomyces cerevisiae)
chain: MPVCKNCHGTEFERDLSNANNDLVCKACGVVSEDNPIVSEVTFGETSAGAAVVQGSFIGAGQSHAAFGGSSALESREATLNNARRKLRAVSYALHIPEYITDAAFQWYKLALANNFVQGRRSQNVIASCLYVACRKEKTHHMLIDFSSRLQVSVYSIGATFLKMVKKLHITELPLADPSLFIQHFAEKLDLADKKIKVVKDAVKLAQRMSKDWMFEGRRPAGIAGACILLACRMNNLRRTHTEIVAVSHVAEETLQQRLNEFKNTKAAKLSVQKFRENDVEDGEARPPSFVKNRKKERKIKDSLDKEEMFQTSEEALNKNPILTQVLGEQELSSKEVLFYLKQFSERRARVVERIKATNGIDGENIYHEGSENETRKRKLSEAMPWSGIVPTLQNIVATVTLGCRLDLKTVALHARNAEYNPKRFAAVIMRIREPKTTALIFASGKMVVTGAKSEDDSKLASRKYARIIQKIGFAAKFTDFKIQNIVGSCDVKFPIRLEGLAFSHGTFSSYEPELFPGLIYRMVKPKIVLLIFVSGKIVLTGAKQREEIYQAFEAIYPVLSEFRKMGSGSGSGSGSGSPRNLHLLPTTDTYLSKVSDDPDNLEDVDDEELNAHLLNEEASKLKERIWIGLNADFLLEQESKRLKQEADIATGNTSVKKKRTRRRNNTRSDEPTKTVDAAAAIGLMSDLQDKSGLHAALKAAEESGDFTTADSVKNMLQKASFSKKINYDAIDGLFR
notes: Brf1 (TFIIB-related factor), S. cerevisiae, N-terminal part up to residue 382 (residues 383-438 of Brf1 were replaced by TBPc); linker between Brf1 residue 382 and TBP residue 61; linker between TBP residue 240 and Brf1 residue 439; Brf1, S. cerevisiae, C-terminal part from residue 439 to the end of full-length Brf1; Cloned in pET21b(+) at SalI and NotI; The printed offset (632-649 in the chimera …)
B1: binds (Bdp1 (B double prime)); binds (Bdp1 Δ355–372).

B2: TATA box-binding protein (TBP) core domain, the TBPc part of the chimera Brf1N-TBPc-Brf1C (domain or fragment, Saccharomyces cerevisiae, UniProt P13393 61-240, looked up)
chain: SGIVPTLQNIVATVTLGCRLDLKTVALHARNAEYNPKRFAAVIMRIREPKTTALIFASGKMVVTGAKSEDDSKLASRKYARIIQKIGFAAKFTDFKIQNIVGSCDVKFPIRLEGLAFSHGTFSSYEPELFPGLIYRMVKPKIVLLIFVSGKIVLTGAKQREEIYQAFEAIYPVLSEFRKM
notes: TBP, S. cerevisiae, core domain residues 61-240; In the assay TBPc stood inside the chain of the chimera m2, between Brf1 1-382 and Brf1 439-end; this molecule is made only for the rows of TBP with Brf1 and Bdp1; source: E. coli BL21 (DE3) pRARE, purified, as part of the chimera m2
B2: binds (Bdp1 (B double prime)).

B3: C34 subunit of Pol III (natural protein, Saccharomyces cerevisiae, UniProt P32910 1-317, looked up)
chain: MSGMIENGLQLSDNAKTLHSQMMSKGIGALFTQQELQKQMGIGSLTDLMSIVQELLDKNLIKLVKQNDELKFQGVLESEAQKKATMSAEEALVYSYIEASGREGIWSKTIKARTNLHQHVVLKCLKSLESQRYVKSVKSVKFPTRKIYMLYSLQPSVDITGGPWFTDGELDIEFINSLLTIVWRFISENTFPNGFKNFENGPKKNVFYAPNVKNYSTTQEILEFITAAQVANVELTPSNIRSLCEVLVYDDKLEKVTHDCYRVTLESILQMNQGEGEPEAGNKALEDEEEFSIFNYFKMFPASKHDKEVVYFDEWTI
notes: C34, subunit of the Pol III-specific heterotrimer C82/34/31, S. cerevisiae; WH1 residues 10-77, WH2 residues 78-158; Stood in the assay as a subunit of the whole Pol III; source: endogenous, purified from S. cerevisiae as a subunit of Pol III (TAP tag on C53)
B3: binds (Bdp1 (B double prime)).

B4: ITC scaffold with 6-mer RNA (mixed)
DNA 1: CAACTTGGCCATGGAGTCATTTTATCTTGTGTCACTTTTACAGAAAAAGTATTACTAATATATGTTGAAAAACTGGGGAATTCCATGGTCCGTA
DNA 2: TTTTCAACATATATTAGTAATACTTTTTCTGTATTTTTTTTTTTTTTTTAAATGACTCCATGGCCAAGTTG
DNA 3: TACGGACCATGGAATTCCCCAGT
?: ACAAGA
B4: binds [1].

B5: OC (open complex) scaffold (dsDNA)
DNA 1: CAACTTGGCCATGGAGTCATTTTATCTTGTGTCACTTTTACAGAAAAAGTATTACTAATATATGTTGAAAAACTGGGGAATTCCATGGTCCGTA
DNA 2: TTTTCAACATATATTAGTAATACTTTTTCTGTATTTTTTTTTTAAGATAAAATGACTCCATGGCCAAGTTG
DNA 3: TACGGACCATGGAATTCCCCAGT
B5: binds [2].

B6: CC (closed complex) scaffold (dsDNA)
DNA 1: CAACTTGGCCATGGAGTCATTTTATCTTGTGTCACTTTTACAGAAAAAGTATTACTAATATATGTTGAAAAACTGGGGAATTCCATGGTCCGTA
DNA 2: TTTTCAACATATATTAGTAATACTTTTTCTGTAAAAGTGACACAAGATAAAATGACTCCATGGCCAAGTTG
DNA 3: TACGGACCATGGAATTCCCCAGT
B6: binds [3]; binds [4].

B7: EC scaffold with 20-mer RNA (mixed)
DNA 1: ACGCCTTAACCAACTTGGCCATGGAGTCATTTTATCTTGTGTCACTTTTACAGAAAAAGTATTACTAATATATGTTGAAAAACTGGGGAATTCCATGGTCCGTA
DNA 2: TTCAACATATATTAGTAATACTTTTTCTGTAAAAGTGACACAAGATAAAAATTTTTTTTGTCCAAGTTGGTTAAGGCGT
DNA 3: TACGGACCATGGAATTCCCCAGT
RNA: UUUUUUUUUUUAGACUCCAU
B7: binds [5].
